pKd: −log10 of the molar value.
Key:
[1] = target: human α-CGRP fragment 25-37 (human); experiment: Biacore SPR, 25 °C, Fab flowed over biotinylated peptide on SA chip; mean ± SD of two measurements
[2] = target: human α-CGRP fragment 19-37 (human); experiment: as above
[3] = target: human α-CGRP T30A (25-37) (human); experiment: Biacore SPR, 25 °C, Fab over peptide on chip; KD ratio to parent 25-37
[4] = target: human α-CGRP S34A (25-37) (human); experiment: as above
[5] = target: human α-CGRP F37A (25-37) (human); experiment: as above
[6] = target: human α-CGRP F27A (25-37) (human); experiment: as above
[7] = target: human α-CGRP N31A (25-37) (human); experiment: as above
[8] = target: human α-CGRP P29A (25-37) (human); experiment: as above
[9] = target: human α-CGRP V28A (25-37) (human); experiment: as above
[10] = target: human α-CGRP V32A (25-37) (human); experiment: as above
[11] = target: human α-CGRP G33A (25-37) (human); experiment: as above
[12] = target: human α-CGRP 1-37 (WT) (human); experiment: Biacore 37°C, Fab over biotinylated CGRP on SA chip
rat α-CGRP (1-37) (rat) = experiment: as above
[13] = target: human α-CGRP K35A (19-37) (human); experiment: Biacore SPR, 25 °C, Fab over peptide on chip; KD ratio to parent 19-37
[14] = target: human α-CGRP 1-37 (WT) (human); experiment: Biacore 25°C, Fab over biotinylated CGRP on SA chip

Sequence of human α-CGRP 1-37 (WT) (human) (peptide, as listed by the source): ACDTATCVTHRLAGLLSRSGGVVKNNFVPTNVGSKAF
Sequence of rat α-CGRP (1-37) (rat) (peptide, as listed by the source): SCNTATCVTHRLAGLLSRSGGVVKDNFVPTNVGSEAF

- pKd [1]: 9.85
- pKd [2]: 8.96
- KD(mutant/parent) [3]: 7
- KD(mutant/parent) [4]: 69
- KD(mutant/parent) [5]: 3600
- KD(mutant/parent) [6]: 1
- KD(mutant/parent) [7]: 9
- KD(mutant/parent) [8]: 26
- KD(mutant/parent) [9]: 1
- KD(mutant/parent) [10]: 41
- KD(mutant/parent) [11]: 1260
- pKd [12]: 9.05
- pKd (rat α-CGRP (1-37) (rat)): 7.33
- KD(mutant/parent) [13]: 4
- pKd [14]: 9.00
Substance: murine anti-CGRP monoclonal antibody 7E9, Fab fragment
